From US20240084003A1 (SIMCERE ZAIMING PHARMACEUTICAL, published 2024) come the findings set out here.

The labels stand for the following.
B1: F2.343.16 human-murine chimeric antibody (antibody, human IgG1, lambda, V domains shown)
VH: QVQLKQSGPGLVQPSQSLSITCTVSGFSLTGYGVQWVRQSPGKGLEWLGVIWGGGGTDYNAAFISRLNIIKDNSKSQVFFKMNSLQADDTAIYYCARYSKYGHFDVWGTGTAVTVSS
VL: QAVVTQESALTTSPGETVTLTCRSSTGAVTTSNYANWVQEKPDHLFTGLIGGTYNRVPGVPARFSGSLIGDKAALTITGAQTEDEAIYFCALWYSNHFWVFGGGTKLTVLG
notes: Chimeric, human IgG1 / lambda; VL tied by name
B2: F2.127.11 human-murine chimeric antibody (antibody, human IgG1, lambda, V domains shown)
VH: QVTLKESGPGILQPSQTLSLTCSFSGFSLSTFGMGVGWIRQPSGKGLEWLAHIWWDDDKHYNPALKSRLTISKDTSRNQVFLKIANVDTADGATYFCARDNWVSSLDYWGQGTSVIVSS
VL: QPVITQSSSASFSLGASAELTCTLSSQHSTYTIEWYQQQPLKPPKYVMGLKKDGSHSTGDGIPDRFSGSSSGADRYLSISNIQPEDEAIYICGVSDTIKEQFVYVFGGGTKVTVLG
notes: as for B1
B3: F2.205.9 human-murine chimeric antibody (antibody, human IgG1, lambda, V domains shown)
VH: QVTLKESGPGILQPSQTLSLTCSFSGFSLSTSGMGVGWIRQPSGKGLEWLAHIWWDDDEYYNPALKSRLTISKDTSKNQVFLKIANVDTADTATYYCARISIPYGYYDWFFDVWGTGTTVTVSA
VL: QAVVTQESALTTSPGETVTLTCRSSTGAVTTRNYANWVQEKPDHLFTGLIGGTNNRAPGVPARFSGSLIGDKAALTITGAQTEDEAIYFCALWYSNHFIFGSGTKVTVLG
notes: as for B1
B4: F2.99.1 human-murine chimeric antibody (antibody, human IgG1, lambda, V domains shown)
VH: QVTLKESGPGILQPSQTLSLTCSFSGFSLSTFPMGVGWIRQPSGKGLEWLAHIWWDDDEYYNPVLKSRLTISKDTSKKQVYLRIANVDTVDTATYYCTRANWDRWYFDVWGTGTTVTVSS
VL: QLVLTQSSSASFSLGASAKLTCTLSRQHSAYTIEWYQQQPLKPPKYVMEVKKDGSHSTGDGIPDRFSGSSSGADRYLSISNIQPEDEAIYICGVGDTIKEHFVFGGGTKVTVLG
notes: as for B1
B5: F2.42.9 human-murine chimeric antibody (antibody, human IgG1, lambda, V domains shown)
VH: QVTLKESGPGILQPSQTLSLTCSFSGFSLSTFDRGVGWIRQPSGKGLEWLAHIWWNDKKFYNPVLKSRLTISKDTSKNQVFLTIANVDSADTATYSCARIVWDKYYFDYWGQGIPLTVSS
VL: B4 VL with R26S, Y46F, E49D, V50L, D64A, S78T, H101Q, F102Y
notes: as for B1
B6: F2.55.1 human-murine chimeric antibody (antibody, human IgG1, lambda, V domains shown)
VH: QVTLKESGPGILQPSQTLSLTCSFSGFSLSTFPLGVGWIRQPSGKGLEWLAHVWWNDDDYYNPALKSRLTISKDTSNTRVFLSVASVDTAETATYYCARLNWDRWYFDVWGTGTTVTVSS
VL: B4 VL with R26S, I33V, V50L, I98V, H101Q
notes: as for B1

Positions count from the first letter of the chain named.

One assay addresses T1, human CD22, endogenous on Raji cells (human, UniProt P20273 20-847).
T1 construct: whole, on cells; Endogenous protein of the Raji cell line
T1 sequence (looked up): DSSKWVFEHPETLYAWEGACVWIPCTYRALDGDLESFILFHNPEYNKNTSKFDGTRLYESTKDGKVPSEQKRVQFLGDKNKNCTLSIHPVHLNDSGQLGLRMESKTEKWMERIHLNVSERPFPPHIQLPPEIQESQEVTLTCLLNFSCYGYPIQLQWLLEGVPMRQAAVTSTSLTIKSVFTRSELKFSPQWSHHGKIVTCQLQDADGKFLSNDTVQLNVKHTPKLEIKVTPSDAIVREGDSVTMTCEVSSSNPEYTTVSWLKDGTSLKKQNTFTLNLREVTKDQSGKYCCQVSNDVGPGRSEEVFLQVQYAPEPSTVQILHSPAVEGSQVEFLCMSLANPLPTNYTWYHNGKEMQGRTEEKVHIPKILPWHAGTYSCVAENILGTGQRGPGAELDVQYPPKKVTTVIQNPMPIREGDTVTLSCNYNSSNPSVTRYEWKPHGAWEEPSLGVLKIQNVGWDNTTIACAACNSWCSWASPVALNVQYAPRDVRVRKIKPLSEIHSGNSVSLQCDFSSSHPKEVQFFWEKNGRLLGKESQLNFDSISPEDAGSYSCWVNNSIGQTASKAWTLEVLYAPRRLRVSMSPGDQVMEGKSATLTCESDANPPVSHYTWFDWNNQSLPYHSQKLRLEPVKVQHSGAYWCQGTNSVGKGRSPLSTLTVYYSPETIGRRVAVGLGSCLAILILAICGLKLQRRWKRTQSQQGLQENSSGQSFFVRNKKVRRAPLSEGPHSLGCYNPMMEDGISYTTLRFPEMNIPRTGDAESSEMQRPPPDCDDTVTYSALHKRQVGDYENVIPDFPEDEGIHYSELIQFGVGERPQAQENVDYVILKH
The assay is described as follows: FACS, Raji cells. The text has this:
(§1) The required cells were scale-up cultured in a T-75 cell culture flask to the logarithmic growth phase. For the adherent cell CHO-K1, the medium was aspirated, the cells were washed 2 times with PBS buffer, and then digested with trypsin. After the digestion was terminated, the cells were washed 2 times with PBS buffer. For suspension cell Raji, the medium supernatant was directly centrifuged and discarded, and the cell pellet was washed 2 times with PBS. After counting the cells in the previous step, the cell pellet was resuspended with [PBS+2% (w/w) BSA] blocking solution to 2×10⁶ cells/ml, and added to a 96-well FACS reaction plate at 50 μl/well, and then the chimeric antibody test sample was added at 50 μl/well, and incubated on ice for 2 hours. The mixture was centrifuged and washed 3 times with PBS buffer, Alexa Flour 488-labeled secondary antibody (purchased from Invitrogen, catalog number: A-11013) was added at 50 μl/well, and incubated on ice for 1 hour. The obtained mixture was centrifuged and washed 5 times with PBS, and FACS (FACS Canto™, purchased from BD Company) was used for detection and result analysis. Data analysis was performed by software (CellQuest) to obtain the mean fluorescence density (MFI)of the cells. And then software (GraphPad Prism8) was used for analysis, data fitting, and EC50 value calculation. […] The same method was used to detect the binding of the chimeric antibodies to endogenous CD22-negative cell MoLT4 cells (purchased from ATCC, CRL-1582) and CHO-K1 cells.
Consider B1, for which a half-maximal response (EC50) required 0.8 nM and the “Maximum mean fluorescence intensity” value came to 19300 MFI.

Consider B2, for which the EC50 was found to be 0.59 nM and the “Maximum mean fluorescence intensity” value came out at 24400 MFI.

Regarding B3, the midpoint of the response, the EC50, lay at 0.38 nM and the “Maximum mean fluorescence intensity” value is 15500 MFI.

As to B4, a half-maximal response (EC50) required 0.59 nM and the “Maximum mean fluorescence intensity” value was determined as 18100 MFI.

As for B5, the response was half-maximal at 0.33 nM (EC50) and the “Maximum mean fluorescence intensity” value is 16700 MFI.

Regarding B6, the EC50 stood at 0.41 nM and the “Maximum mean fluorescence intensity” value is 18600 MFI.

In another assay the target is T2, human CD22, full length, on CHO-K1-human CD22 2C4 cells (human, UniProt P20273 20-847).
T2 construct: Full-length human CD22 (NCBI NP_001762.2) stably transfected into CHO-K1
T2 sequence: T1 sequence (looked up)
The assay is described as follows: FACS, CHO-K1-human CD22 2C4 cells.
Text: as §1
On the technique in general: A flow cytometer gives signals particle by particle.
Consider B1, for which the EC50 is 1.15 nM and the “Maximum mean fluorescence intensity” value amounted to 50200 MFI.

Regarding B2, the EC50 is 1.22 nM and the “Maximum mean fluorescence intensity” value was 58500 MFI.

For B3, a half-maximal effect (EC50) was put at 0.72 nM and the “Maximum mean fluorescence intensity” value is 40200 MFI.

In the case of B4, the EC50 came out at 0.83 nM and the “Maximum mean fluorescence intensity” value came out at 44800 MFI.

For the molecule B5, a half-maximal response (EC50) required 0.87 nM and the “Maximum mean fluorescence intensity” value turned out to be 41000 MFI.

On to B6, for which the concentration giving a half-maximal response (EC50) amounted to 0.82 nM and the “Maximum mean fluorescence intensity” value amounted to 42000 MFI.

In another assay the target is T3, murine CD22 protein (ACROBiosystems, SI2-M52Ha) (murine, UniProt P35329 22-708).
T3 construct: extracellular domain; also called murine CD22-ECD; murine CD22-ECD-His
T3 sequence (looked up): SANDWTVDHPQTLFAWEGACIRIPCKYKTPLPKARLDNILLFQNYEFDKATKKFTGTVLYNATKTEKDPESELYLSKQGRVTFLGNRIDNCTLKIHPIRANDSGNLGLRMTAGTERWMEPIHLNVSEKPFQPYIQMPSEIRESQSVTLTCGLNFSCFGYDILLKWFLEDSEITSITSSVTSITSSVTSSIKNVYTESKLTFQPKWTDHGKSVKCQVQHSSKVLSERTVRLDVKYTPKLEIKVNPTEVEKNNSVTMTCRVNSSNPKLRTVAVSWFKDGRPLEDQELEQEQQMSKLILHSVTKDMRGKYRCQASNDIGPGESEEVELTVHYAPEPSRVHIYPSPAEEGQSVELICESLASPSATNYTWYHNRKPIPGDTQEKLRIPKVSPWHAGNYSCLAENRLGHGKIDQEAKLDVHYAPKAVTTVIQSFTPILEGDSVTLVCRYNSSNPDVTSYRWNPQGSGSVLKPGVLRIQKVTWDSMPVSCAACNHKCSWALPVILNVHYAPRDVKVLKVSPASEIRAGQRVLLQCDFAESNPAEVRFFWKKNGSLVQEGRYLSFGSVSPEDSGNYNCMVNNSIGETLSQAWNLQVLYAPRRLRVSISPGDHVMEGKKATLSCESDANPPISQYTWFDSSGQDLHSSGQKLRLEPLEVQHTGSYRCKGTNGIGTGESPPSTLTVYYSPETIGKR
The assay is described as follows: ELISA, coated murine CD22, 10 nM Ab. The gist of the method: (§2)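 Plates were coated overnight at 4° C with 2 μg/mL CD22 protein in PBS and blocked with PBS + 2% BSA. Chimeric antibodies were incubated for 2 h at 37° C, then HRP-labelled secondary for 2 h at 37° C. Bound antibody was read by TMB colour development (30 min, RT) stopped with 1.0 N HCl.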
The molecule B1 registered an OD450 of 0.06 OD450.

B2 returned an OD450 of 0.07 OD450.

On to B3, for which the OD450 was determined as 0.06 OD450.

Turning to B4, the OD450 is 0.06 OD450.

In turn, B5 returned an OD450 of 0.08 OD450.

In turn, B6 yielded an OD450 of 0.06 OD450.

In a further assay the target is T3, murine CD22 protein (ACROBiosystems, …). The assay is described as follows: ELISA, coated murine CD22, 0.1 nM Ab. In outline: as §2
In turn, B1 came in with an OD450 of 0.05 OD450.

The molecule B2 registered an OD450 of 0.06 OD450.

Molecule B3 came in with an OD450 of 0.05 OD450.

In turn, B4 had an OD450 of 0.05 OD450.

B5 displayed an OD450 of 0.08 OD450.

For the molecule B6, the OD450 turned out to be 0.06 OD450.

For another assay the target is unchanged. The assay is described as follows: ELISA, coated murine CD22, 100 nM Ab. The gist of the method:
as §2
The molecule B1 came in with an OD450 of 0.07 OD450.

B2: the OD450 is 0.1 OD450.

In turn, B3 returned an OD450 of 0.07 OD450.

The molecule B4 came in with an OD450 of 0.07 OD450.

For B5, the OD450 came to 0.09 OD450.

In turn, B6 gave an OD450 of 0.09 OD450.

The target is the same in the next assay. The assay is described as follows: ELISA, coated murine CD22, 0.01 nM Ab. The gist of the method:
as §2
Background: ELISA stands for enzyme-linked immunosorbent assay.
Consider B1, for which the OD450 is 0.05 OD450.

In turn, B2 gave an OD450 of 0.05 OD450.

The molecule B3 returned an OD450 of 0.05 OD450.

B4 had an OD450 of 0.06 OD450.

B5 registered an OD450 of 0.07 OD450.

The molecule B6 showed an OD450 of 0.05 OD450.

The target is the same in the next assay. As to the kind of experiment: ELISA, coated murine CD22, 0.001 nM Ab. The gist of the method:
as §2
For B1, the OD450 came to 0.05 OD450.

Take B2: the OD450 worked out at 0.05 OD450.

In the case of B3, the OD450 was 0.05 OD450.

As for B4, the OD450 amounted to 0.05 OD450.

In turn, B5 displayed an OD450 of 0.07 OD450.

B6 displayed an OD450 of 0.05 OD450.

The next assay has the same target. As to the kind of experiment: ELISA, coated murine CD22, 0.0001 nM Ab. In outline:
as §2
For B1, the OD450 was 0.05 OD450.

Consider B2, for which the OD450 worked out at 0.06 OD450.

Regarding B3, the OD450 is 0.05 OD450.

As to B4, the OD450 was determined as 0.05 OD450.

In turn, B5 showed an OD450 of 0.08 OD450.

In the case of B6, the OD450 turned out to be 0.06 OD450.

For a further assay the target is unchanged. As to the kind of experiment: ELISA, coated murine CD22, 0.00001 nM Ab. The gist of the method:
as §2
B1 yielded an OD450 of 0.06 OD450.

As for B2, the OD450 came out at 0.06 OD450.

B3 came in with an OD450 of 0.06 OD450.

The molecule B4 registered an OD450 of 0.06 OD450.

As to B5, the OD450 came out at 0.08 OD450.

In the case of B6, the OD450 amounted to 0.06 OD450.

A word on the EC50: it is the concentration needed to bring the measured effect to its halfway point. Lower therefore signals greater potency.
